B1: SlGA3ox1 probe P5 (dsDNA)
DNA 1: TTAACAAAGACAAATTAGTTGATTGGTTAAAGACAATCAATATGT
DNA 2: ACATATTGATTGTCTTTAACCAATCAACTAATTTGTCTTTGTTAA
B2: SlGA3ox2 probe P3 (dsDNA)
DNA 1: CCCATACAACTTTGCGATGTTAATGGTTATAACTATAAAGGGAGA
DNA 2: TCTCCCTTTATAGTTATAACCATTAACATCGCAAAGTTGTATGGG
B3: SlGA3ox2 probe P1 (dsDNA)
DNA 1: GCACTTAAGATCATAATTAATGATTTCAGTTACCGCAATAAAATG
DNA 2: CATTTTATTGCGGTAACTGAAATCATTAATTATGATCTTAAGTGC
B4: SlGA3ox2 probe P2 (dsDNA)
DNA 1: CAATTATTTGTCAATATTTGGTTAAATACTTGTTTAATAGTATAC
DNA 2: GTATACTATTAAACAAGTATTTAACCAAATATTGACAAATAATTG
B5: SlGA3ox2 probe P4 (dsDNA)
DNA 1: CTATAATTGAATTGAATTCAGTTAACTGTCGAAATTGGAATGGTA
DNA 2: TACCATTCCAATTTCGACAGTTAACTGAATTCAATTCAATTATAG

For the series, the target named is SlGAMYB2-GST (Solanum lycopersicum, UniProt A0A3Q7H2U6 1-504). The series can be described thus: EMSA.
Consider B1, for which the binding result is reported as “no binding”. For the molecule B2, the binding result is listed as “binds”.

On to B3, for which the binding result is “no binding”. As for B4, the binding result is given as “binds”. For B5, the binding result was “no binding”.
